# Test results as given in US20250136694A1 (HARBOUR BIOMED SHANGHAI, published 2025).
# Residue numbers refer to the chain shown, from its start. Numbers in names are those of the source.
# T1: cynomolgus monkey B7-H4 on the cell surface (cynomolgus monkey, UniProt A0A2K5U6P5 25-282)
# T1 construct: whole, on cells; also called cyno B7-H4; CHO-K1/cynoB7-H4
# T1 sequence: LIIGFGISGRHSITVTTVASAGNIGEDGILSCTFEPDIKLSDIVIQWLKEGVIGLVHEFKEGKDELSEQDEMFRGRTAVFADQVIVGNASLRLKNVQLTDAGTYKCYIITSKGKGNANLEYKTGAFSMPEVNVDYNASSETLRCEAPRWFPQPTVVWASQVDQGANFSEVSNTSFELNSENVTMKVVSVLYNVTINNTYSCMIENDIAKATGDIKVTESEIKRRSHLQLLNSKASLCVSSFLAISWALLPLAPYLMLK
# T2: mouse B7-H4 on the cell surface (mouse, UniProt Q7TSP5 25-257)
# T2 construct: whole, on cells; also called m B7-H4; CHO-K1/mB7-H4
# T2 sequence (looked up): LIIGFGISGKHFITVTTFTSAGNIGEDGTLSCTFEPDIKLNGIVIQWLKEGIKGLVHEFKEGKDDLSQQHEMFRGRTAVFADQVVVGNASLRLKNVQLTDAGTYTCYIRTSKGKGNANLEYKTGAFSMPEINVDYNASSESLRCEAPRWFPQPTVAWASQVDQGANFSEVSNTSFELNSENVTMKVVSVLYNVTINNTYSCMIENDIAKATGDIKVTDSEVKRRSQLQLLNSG
# T3: human B7-H4 on the cell surface (human, UniProt Q7Z7D3 25-282)
# T3 construct: whole, on cells; also called hu B7-H4; CHO-K1/huB7-H4
# T3 sequence (looked up): T1 sequence with I53L, L242F, A252S
# T4: human B7-H4 (protein in solution, BLI) (human, UniProt Q7Z7D3 25-258, limits assumed)
# T4 sequence (looked up): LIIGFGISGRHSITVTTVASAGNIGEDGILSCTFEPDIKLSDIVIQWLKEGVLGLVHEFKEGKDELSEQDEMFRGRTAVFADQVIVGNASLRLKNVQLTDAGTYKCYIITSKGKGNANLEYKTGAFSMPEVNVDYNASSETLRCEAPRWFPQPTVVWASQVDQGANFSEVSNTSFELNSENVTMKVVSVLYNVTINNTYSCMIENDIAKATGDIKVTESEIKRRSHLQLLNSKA
# B1: PR006004 (antibody, V domains shown)
# VH: EVQLVESGGGLVQPGGSLRLSCAASGFAFSNYWMHWARQVPGKGRVWISRISGDGRSTSYADSVKGRFTISRDNAKNMVYLQMNNLRAEDTAVYYCARDRFGDDYYYGMNVWGQGTTVTVSS
# notes: also called R7004M1A2; anti-human B7-H4 HCAb monoclonal antibody
# B2: PR007440 (antibody, IgG1, V domains shown)
# VH: B1 VH with G55S
# notes: also called PTM variant (G55S) of PR006004
# B3: PR006008 (antibody, IgG1, V domains shown)
# VH: EVQLVESGGGLVQPGGSLRLSCAASGFTFTDFWMHWVRQVPGKGREWVSRISPDGSSTSYEDSVKGRFTISRDNAKNTVYLQMHGLRAEDTAVYYCTRFSTGWHRIEYFQHWGQGTLVTVSS
# notes: also called R7004M6D4; anti-human B7-H4 HCAb monoclonal antibody
# B4: PR007441 (antibody, IgG1, V domains shown)
# VH: B3 VH with G55S
# notes: also called PTM variant (G55S) of PR006008
# B5: PR007195 (antibody, IgG1, V domains shown)
# VH: B1 VH with V46E, G55S, R56D, A61E
# notes: also called charge variant of PR006004 (V46E, G55S, R56D, A61E)
# B6: PR007196 (antibody, IgG1, V domains shown)
# VH: B1 VH with V46E, G55S, R56E
# notes: also called charge variant of PR006004 (V46E, G55S, R56E)
# B7: PR007200 (antibody, IgG1, V domains shown)
# VH: B1 VH with V46E, G55S, R56S
# notes: also called charge variant of PR006004 (V46E, G55S, R56S)
# B8: PR007201 (antibody, IgG1, V domains shown)
# VH: B1 VH with V46E, G55S, R56S, A61E
# notes: also called charge variant of PR006004 (V46E, G55S, R56S, A61E)
# B9: PR007202 (antibody, IgG1, V domains shown)
# VH: B1 VH with V46E, G55S, R56T
# notes: also called charge variant of PR006004 (V46E, G55S, R56T)
# B10: PR007203 (antibody, IgG1, V domains shown)
# VH: B1 VH with V46E, G55S, R56T, A61E
# notes: also called charge variant of PR006004 (V46E, G55S, R56T, A61E)
# Target: T1, cynomolgus monkey B7-H4 on the cell …
# Assay: FACS, CHO-K1/cyno B7-H4 cells
# Protocol: (§1) Briefly, cells were digested and resuspended in PBS containing 2% FBS, and the cell density was adjusted to 1×10⁶ cells/mL. The cells were seeded in a 96-well V-bottom plate (Corning, Cat #3894) at 100 μL/well, followed by the addition of test antibodies 3-fold serially diluted at a concentration that was 2 times the final concentration, each at 100 μL/well. The cells were incubated away from light at 4° C. for 2 h. Then, the cells in each well were rinsed twice with 100 μL of pre-cooled PBS and centrifuged at 500 g at 4° C. for 5 min, and then the supernatant was discarded. […] The cells in each well were then rinsed twice with 100 μL of pre-cooled PBS and centrifuged at 500 g at 4° C. for 5 min, and then the supernatant was discarded. Finally, the cells in each well were resuspended in 200 μL of pre-cooled PBS, and the fluorescence signal values were read using ACEA Novocyte3000.
Binder,EC50,Maximum MFI
B1,1.65 nM,1.57e+06 MFI
B2,3.06 nM,1.59e+06 MFI
B3,0.432 nM,1.25e+06 MFI
B4,0.721 nM,1.26e+06 MFI

# Target: T2, mouse B7-H4 on the cell surface
# Assay: FACS, CHO-K1/m B7-H4 cells
# Protocol: as §1
row,Binder,EC50
1,B3,0.403 nM
2,B4,0.617 nM

# Target: T3, human B7-H4 on the cell surface
# Assay: FACS, CHO-K1/hu B7-H4 cells
# Protocol: as §1
row,Binder,EC50
1,B1,4.86 nM
2,B3,1.07 nM

# Target: T4, human B7-H4 (protein in solution, BLI)
# Assay: BLI (Octet), antibody captured on AHC sensor, antigen in solution
# Protocol: The binding kinetics between the antigen and the antibody was analyzed by the biolayer interferometry (BLI) technique using an Octet Red 96e molecular interaction analyzer (Fortebio).
# When the affinity of the antigen for the antibody was determined, the rotation speed of the sensor was set at 1000 rpm/min. […] Finally, the AHC sensor was immersed in a 10 mM glycine-hydrochloric acid solution at pH 1.5 for regeneration to elute the proteins bound to the sensor.
# When data analysis was performed using Octet Data Analysis software (Fortebio, version 11.0), 0 nM was taken as a reference well, and reference subtraction was performed; the “1:1 Global fitting” method was selected to fit the data, and the kinetics parameters of the binding of antigens to antigen-binding proteins were calculated, with kₒₙ(1/Ms) values, kdis(1/s) values, and KD(M) values obtained (see Table 3 and FIG. 2).
Binder,Kd,koff,kon
B1,1.89 nM,0.000396 s⁻¹,210000 M⁻¹ s⁻¹
B3,3.65 nM,0.00114 s⁻¹,312000 M⁻¹ s⁻¹

# Target: T3, human B7-H4 on the cell surface
# Assay: FACS, CHO-K1/hu B7-H4 cells
# Remark: another data set of the same source
# Protocol: as §1
Binder,EC50,Maximum MFI
B1,2.75 nM,1.63e+06 MFI
B5,5.65 nM,1.58e+06 MFI
B6,3.72 nM,971000 MFI
B7,5.39 nM,1.48e+06 MFI
B8,5.5 nM,1.46e+06 MFI
B9,5.58 nM,1.51e+06 MFI
B10,5.41 nM,1.53e+06 MFI

# Target: T3, human B7-H4 on the cell surface
# Assay: FACS, MDA-MB-468 cells
# Protocol: as §1
Binder,EC50,Maximum MFI
B1,5.19 nM,183000 MFI
B2,9.18 nM,185000 MFI
B3,0.162 nM,149000 MFI
B4,0.244 nM,148000 MFI

# Target: T2, mouse B7-H4 on the cell surface
# Assay: FACS on CHO-K1/mB7-H4 cells
row,Binder,binding result
1,B1,no binding (tested: 100 nM)
2,B2,no binding (tested: 100 nM)
